Results on 4 molecules are retold here after patent publication US20120108492A1, “LIGAND-SPECIFIC NON-ANTIBODY COMPOUNDS THAT INHIBIT CR2 ACTIVATION AND METHODS OF USE THEREOF” (The Regents of the University of Colorado, priority 2008, published 2012).

Read-outs that look alike come from different tables or passages of the source.

Assay [1] deals with T1, EBV gp350 (Epstein-Barr virus, UniProt P03200). Briefly: MBP-CR2 SCR1-2 mutant-EBV gp350 ELISA. The class given is binding. Details: DNA corresponding to residues 1-470 of EBV gp350/220; E. coli biotin carboxyl carrier protein (BCCP) fragment, residues 70-156; hexa-histidine (C); made in house; host or cells: human embryonic kidney 293f freestyle cells (pSecTag2/Hygro B). As to conditions: for EBV gp350 binding relative to wild-type CR2: mutant MBP-CR2 SCR1-2. The method, then:
See Martin et al. (1991) J Exp Med 174:1299-311; Young et al. (2007) J Biol Chem 282:36614-36625; Guthridge et al. (2001) Biochemistry 40:5931-41; and Sarrias et al. (2001) J Immunol 167:1490-9. […] Young et al. (2007) J Biol Chem 282:36614-36625.
(§1) After coating, the plates were blocked using 0.1% BSA in a PBS solution, pH 7.4 for one hour at room temperature. The plates were then washed, and incubated with either wild-type or mutant MBP-CR2 SCR1-2, at concentrations ranging from 0.03125-2.0 μg/ml in PBS for one hour at room temperature. After further washing, wild-type or mutant MBP-CR2 binding was detected using commercially available horseradish peroxidase-conjugated anti-MBP mAb (New England Biolabs) according to the manufacturer's instructions.
In general terms: An ELISA detects its analyte on a solid surface through an enzyme-linked reagent.

Assay [2] deals with T1, EBV gp350. As to conditions: previously observed cell-binding study; mutant CR2 relative to wild-type; cited from earlier work.
Another assay relates to anti-CR2 SCR1-2 mAb 629. The experiment in a line: MBP-CR2 SCR1-2-629 mAb ELISA. The assay is classed as binding. The note with it: mutant MBP-CR2 SCR1-2 relative to wild-type; for % 629 mAb Bindng: plate-bound 629 mAb.
Text: The excellent correlation observed between our cell-binding studies and the ELISA analyses provides proof-of-principle that the MBP-CR2 SCR1-2 ELISA is an effective means of characterizing CR2-ligand interactions. […] See Asokan et al. (2006) J Immunol 177:383-94; Guthridge et al. (2001) J Immunol 167:5758-66; Young et al. (2007) J Biol Chem 282:36614-36625. […] This epitope overlaps extensively with the binding surface on CR2 described above for EBV gp350, and also with the previously described binding sites for C3dg and C3d. Hannan et al. (2005) J Mol Biol 346:845-58; and Young et al. (2007) J Biol Chem 282:36614-36625.
as §1

The test system of assay [3] is anti-CR2 SCR1-2 monoclonal antibody 171. Briefly: MBP-CR2 SCR1-2-171 mAb ELISA. The class given is binding. As to conditions: mutant MBP-CR2 SCR1-2 relative to wild-type; for % 171 mAb Binding: plate-bound 171 mAb. The method, then:
See Asokan et al. (2006) J Immunol 177:383-94; Guthridge et al. (2001) J Immunol 167:5758-66; Young et al. (2007) J Biol Chem 282:36614-36625. […] Hannan et al. (2005) J Mol Biol 346:845-58; and Young et al. (2007) J Biol Chem 282:36614-36625.
as §1

T1 sequence (P03200 1-470): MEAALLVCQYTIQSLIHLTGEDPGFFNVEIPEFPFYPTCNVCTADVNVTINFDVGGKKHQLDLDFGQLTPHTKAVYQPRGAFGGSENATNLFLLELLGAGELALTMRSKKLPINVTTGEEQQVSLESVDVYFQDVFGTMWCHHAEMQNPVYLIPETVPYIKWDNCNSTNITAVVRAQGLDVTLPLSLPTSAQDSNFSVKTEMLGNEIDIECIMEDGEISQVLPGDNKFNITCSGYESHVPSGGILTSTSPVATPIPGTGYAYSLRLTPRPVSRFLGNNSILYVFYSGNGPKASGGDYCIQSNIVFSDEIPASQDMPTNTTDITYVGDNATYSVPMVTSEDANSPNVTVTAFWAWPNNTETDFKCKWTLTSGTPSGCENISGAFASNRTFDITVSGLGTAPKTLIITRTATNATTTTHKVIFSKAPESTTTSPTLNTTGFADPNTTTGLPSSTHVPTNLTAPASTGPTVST

B1: Y16A: single-site mutant of recombinant MBP-CR2 SCR1-2 (protein)
chain: ISCGSPPPILNGRISAYSTPIAVGTVIRYSCSGTFRLIGEKSLLCITKDKVDGTWDKPAPKCEYFNKYSSCPEPIVPGGYKIRGSTPYRHGDSVTFACKTNFSMNGNKSVWCQANNMWGPTRLPTCVSVFPLE
modifications: left off: large carriers; small tags and cut ends
On to B1, for which the “EBV gp350 binding” value in the assay with EBV gp350 [1] (mutant CR2 relative to wild-type CR2) worked out at 95.1%. Besides, the “EBV gp350 binding relative to wild-type CR2” value in the assay with EBV gp350 [1] was “failed to inhibit EBV gp350 binding”. Moreover, the “EBV gp350 binding” value with EBV gp350 [2] was 66.7%. Also, in the assay on anti-CR2 SCR1-2 mAb 629, the “Weighting (629 mAb)” value is on record as “++++ (++++>90%)” and the “% 629 mAb Bindng” value came to 154.4%. Also, in assay [3], the “Weighting (171 mAb)” value is listed as “+++ (+++89.9-70%)” and the “% 171 mAb Binding” value was determined as 81.4%.

B2: R83A: single-site mutant of recombinant MBP-CR2 SCR1-2 (protein)
chain: ISCGSPPPILNGRISYYSTPIAVGTVIRYSCSGTFRLIGEKSLLCITKDKVDGTWDKPAPKCEYFNKYSSCPEPIVPGGYKIAGSTPYRHGDSVTFACKTNFSMNGNKSVWCQANNMWGPTRLPTCVSVFPLE
modifications: left off: large carriers; small tags and cut ends
Regarding B2, in the assay with EBV gp350 [1], the “EBV gp350 binding relative to wild-type CR2” value is “decreased binding affinities for EBV gp350”. Moreover, in the assay on anti-CR2 SCR1-2 mAb 629, the “Weighting (629 mAb)” value is reported as “++++ (++++>90%)” and the “% 629 mAb Bindng” value was 94.4%. In addition, in assay [3], the “Weighting (171 mAb)” value is “++++ (++++>90%)” and the “% 171 mAb Binding” value is on record as 96.9%.

B3: K67A: single-site mutant of recombinant MBP-CR2 SCR1-2 (protein)
chain: ISCGSPPPILNGRISYYSTPIAVGTVIRYSCSGTFRLIGEKSLLCITKDKVDGTWDKPAPKCEYFNAYSSCPEPIVPGGYKIRGSTPYRHGDSVTFACKTNFSMNGNKSVWCQANNMWGPTRLPTCVSVFPLE
modifications: left off: large carriers; small tags and cut ends
As for B3, the “decrease in EBV gp350 binding” value with EBV gp350 [1] (reduction relative to wild-type MBP-CR2 SCR1-2) is “approximately 20%”. Besides, in the assay with anti-CR2 SCR1-2 mAb 629, the “Weighting (629 mAb)” value is given as “++++ (++++>90%)” and the “% 629 mAb Bindng” value worked out at 107.2%. Moreover, in assay [3], the “Weighting (171 mAb)” value was “+++ (+++89.9-70%)” and the “% 171 mAb Binding” value stood at 87.7%.

B4: R89A: single-site mutant of recombinant MBP-CR2 SCR1-2 (protein)
chain: ISCGSPPPILNGRISYYSTPIAVGTVIRYSCSGTFRLIGEKSLLCITKDKVDGTWDKPAPKCEYFNKYSSCPEPIVPGGYKIRGSTPYAHGDSVTFACKTNFSMNGNKSVWCQANNMWGPTRLPTCVSVFPLE
modifications: left off: large carriers; small tags and cut ends
Take B4: the “EBV gp350 binding relative to wild-type CR2” value in the assay with EBV gp350 [1] was “decreased binding affinities for EBV gp350”. Besides, in the assay with anti-CR2 SCR1-2 mAb 629, the “Weighting (629 mAb)” value is given as “+++ (+++89.9-70%)” and the “% 629 mAb Bindng” value was determined as 87.7%. Moreover, in assay [3], the “Weighting (171 mAb)” value is reported as “++++ (++++>90%)” and the “% 171 mAb Binding” value worked out at 93.9%.
